30 sequences from the nanobody polyreactivity screen of Harvey et al. (2022) can be followed below.

A short description of the data set: yeast display, Sf9 membrane polyspecificity reagent, FACS + sequencing; frameworks hold sequencing errors. Put shortly: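 Nanobodies came from a synthetic yeast display library in Saccharomyces cerevisiae BJ5465, induced with galactose for 36–48 hours and stained for 1 hour at 4 °C with 10% biotinylated, detergent-solubilized Sf9 membrane reagent. Cells were enriched on streptavidin microbeads and then FACS-sorted, with low and high (top ~1%) gates set on anti-HA fluorescence for expression and streptavidin fluorescence for reagent binding. Each polyreactivity label reflects the gate a clone came from. Genes were amplified by colony PCR, sequenced by MiSeq 2 × 250 and filtered by CDR length.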
In the case of “QVQLVQSGGGLVQAGGSLRLSCAASGRIFNNYAMGWYRQAPRKERELLAAISGSGGSTYYADSVKGRFTISRDNAKNTVYLQMNCMKPEDTAVYYCSTSGPQYYSRNFDYWGQGTQVTVSS”, the “polyreactivity (PSR sort gate)” value is on record as “low polyreactivity”.
The result for “QVQLVQSGGGLVQAGGSLRLSCAASGRISIIYAMVWYRQAPGKERELVARISGSGGSTNYADSVKGRFTISRDNAKNTVYLQMNSLKPEDTAVYYCAARHYAVRRSRYPGKLGYYWVQGTQVTVSS” reads “high polyreactivity”.
The value for “QVQLVQSGGGLVQAGGSLRLSCAASGSTFSTYAMGWYRQAPGKERELVAAISRYGGLTNYADSVKGRFTISRDNAKNTVYLQMNSLKPEDTAVYYCAARRYDTGNGYDYWGQGTQVTVSS” was “high polyreactivity”; that for “QVQLVQSGGGLVQAGGSLRLSCADSGFIFFTNAMGRYRQAPGQDREFVAAISDSSGSTYYADSVKGRFTISRDNAKNTVYLQMNSLKPEDTAVYYCAAEYPQVTIIGYYYYWGQGTQVTVSS” was “low polyreactivity”.
The result for “QVQLVQSGGGLVQAGGSLSLSCAASGYIFISYAMGWNRQAPGQEREFVAAITGDGGSTYADSVKGRFTISRDNAKKTVYGQMNSLKPEDTAVYYCAKKGNASRYFIYDYWGQGTQVTVSS” reads “low polyreactivity”.
“QVQLVQSGGGLVQAGVSLRLSCAPSGFTFYKYAMGWYRQAPGKERELVAAISGSGTSTYYADSVKGRFTISRHNAKNTVYLQMNSLKPEDTAVYYCATRIVFTRRRMYSWGQGTQVNVSS”: the “polyreactivity (PSR sort gate)” value is given as “high polyreactivity”.
Consider “QVQLVQSGGGLVQEGGSLRLSCAASGSTLSIYAMGWYRQAPGKERELVASITTSGSSTYYADSVKGRFTISRDNAKNTVYLQMNSLKPEDTAVYYCAKRKSYRSQPWGYDYWGQGTQVTVSS”, for which the “polyreactivity (PSR sort gate)” value is “high polyreactivity”.
In the case of “QVQLVQSWGGLVQAGGSLRLICAASGSIIAYNAMGWYRQAPGKEREMVAAITISGGSTYYADSVKGRFTISRDNAKNNVYLQMNSLKPEDTAVYYSAAAIPGARSRRSYGKYFYWGQGTQVTVSS”, the “polyreactivity (PSR sort gate)” value was “low polyreactivity”.
The value for “QVQLVVSGGGLVHAGGSLRLSCAASGNTIFYYDLGGYIQAPGKERELVADITSRGTRTYYADSVKGRFTISRDKAKNTVYLQMNSLKPEDTAVYYCNKARGVAYDWGQGTQVTVSS” was “high polyreactivity”; that for “QVQLVVSGGGLVQAGGILRLICAASGIIFSFYTMGGYRQAPGKERELVAAISTGGGSTYYADSVKGRFTISRDNAKNTVYLQMNSLIPEDTAVSYCAASQSWYWGGAHDNGEFGYCGQGTQVTVSS” was “low polyreactivity”.
The value for “QVQLVVSGGGLVQAGGSLRLSCAASGFIFGYYAMGWYRQAPGNERALDAAITGRGGSTNYADSVKGRFTISRDNAKNTVYLQMNSLKPEDTAVYYCAKRWRSYSRGGDYWGQGTQVTVSS” was “high polyreactivity”; that for “QVQLVVSGGGLVQAGGSLRLSCAASGFTFIVNAMGWYRQAPGKERELVAAISWNGGSTYYADSVKGRFTISRDNAKNTVYLQMNSLKPEATAVYYCAAVRYNSRGSTTPSEMYYWGQGTQVTVSS” was “low polyreactivity”.
The value for “QVQLVVSGGGLVQAGGSLRLSCAASGRFFGYYARGWYRQAPGEERELVAAITRGGSTNYADSVKGRFTISRDNAKNTVYLQMNSLKPEDTAVYYCNARRYRPGTASYDYWGQGTQVTVSS” was “high polyreactivity”.
Take “QVQLVVSGGGLVQAGGSLRLSCAASGRIFRSYAKGWYRQAPGKERELVAAINYGGTSTYYADSVKGRFTISRDNAKNTVYLQMNSLKPEDTAVYYCAARRPTSPRRYESWGQGTQVTVSS”: the “polyreactivity (PSR sort gate)” value is “high polyreactivity”.
The value for “QVQLVVSGGGLVQAGGSLRLSCAASGSTFSLNAMGWYRQAPGKERELVAVITRGTSTYYADSVKGRFTISRDNAKNTVYLQMNRLTPEDNAVYYCAAAVWWSVVWAARYGYWGQGTQVTVSS” was “low polyreactivity”; that for “QVQLVVSGGGLVQAGGSLRLSCAASGYIFVYNAMGWYRQAPGKERELVSAITDGGGSTYADSVKGRFTISRDNAKNTVYLQMNSLKPEDTAVYYCAALYSDTTWYVLYYYWGQGTQVTVSS” was “low polyreactivity”; that for “QVQLVVSGGGLVQAGGSLRLSGAASGSIFWVYAMGWSRQAPGKELELVAAINWRGGSTYYADSVKGRFTISRDNAKNTVYLQKNSLKPEDTAVYNCAVQPNYYGMGYWGQGTQVTVSS” was “high polyreactivity”.
On to “QVQLVYSGGGLVQAGGSLRLSCAASGRTFSWYAMGWYRTAPGKESELVAAITWSGGSTYYADSVKGRFTISRDNAKNTVYLEMNSLKPEDTAVYFCNALRYSNRRYYSTGPHDYWGQGTHVTVSS”, for which the “polyreactivity (PSR sort gate)” value is “high polyreactivity”.
The result for “QVQLVYSGGGLVQAGGSLSLSCAASGSTIDGYAMGWYRQAPGKERELVAAISSSGASTYYADSVKGRFTISRDNAKNTVYLQMNSLKPEDTAVYYCNRVTCQQKNDYWGQGTQVTVSS” reads “high polyreactivity”.
The result for “QVQLVYSGGGLVQSGGSLRLSCAASGYIVQPYAMGWYRQAQGKERELVAPISWRGGSTYSADSVKGRFTISRDNAKNTVYLQMYSLKPEDTAVYYFAKDYYYGLEHYGYWGQGTQVTVSS” reads “low polyreactivity”.
For the sequence “QVQNEESGGGLVQAGGSLRLSCAASGRNFSSYAMGWYRQAPGKERELVAAISRAGGTYYADSVKGRFTISRDNAKNTVYLQMNSMKPEDTAVYYCAARQSVYGLRSDFYYWGQGTQVTVSS”, the “polyreactivity (PSR sort gate)” value is on record as “high polyreactivity”.
Turning to “QVQNVESGRGLVQAGGSLRISCAASGDYAMGWSIQAPGTERELVAAISRRGGSTYYADSVKGRFTISRDNAKNTVYLQMNSLKQDDTAVYSCAADYSSRNRGNRYRLDYWGQGTQVTVSS”, the “polyreactivity (PSR sort gate)” value was “high polyreactivity”.
The result for “QVQPVESAGGLVQAGGSLRLSCAASGSTFARYAMGWFSQAPGKERELVAVITWTGGSTYADSVKGRFTISRDNAKNTVYLQMNSLNPEDTAVYYCNAVHATRRRLGYWGQGTQVTVSS” reads “low polyreactivity”; that for “QVQPVESGGGLVQAGGSLRLSCAASGRTFWYYTMGWYRQAPGKERELVAAITSVGSTYYADSVKGRFTISRDNAKNTVYLQMNSLKPEDTAVYYCAKLYSYTHQSFDHWGQGTQVTVSS”, “high polyreactivity”; that for “QVQPVESGGGLVQAGGSLRLSCAASGSTFTVNAMRWYRQPPGNERELVAAITFSGTSTYYADSVKGRFTISRDNAKNTVYLQMNSLKPEDTAVYYCNAVVWGYSKSLGDTRTKYEYWGQVTQVTVSS”, “high polyreactivity”.
The value for “QVQQLESAGGLVQAGGSLRLSCAASGTITVLYKMGWFRQAPGKEREFVASINYGTSTYYADSVKGRFSVSPDSAKHTVYLQMNSLNPEDTAVYYCAAAYRWQDVYRYWGLGTQVTVSS” was “low polyreactivity”; that for “QVQQQESGGGLVQAGGSLRLSCAASGNTSDTGYMGWYRQAPGKERKVVASIDYGSNTYYADSVKVRFTISRDNAKNTVYLQMNSLKPEDTAVYYCAAYYIGDYTLVYWGQGTQVTVSS” was “high polyreactivity”.
“QVQQQESGGGLVQAGGSLRLSCAASGTIFQLTVMGRYRQAPGKDRELVASIDYGGNTNYADSVKGRFTISRDNAKNTVYLQMNCRKPEDTAVYYCAASSDSWTTHPYWGQGTQVTVRS”: the “polyreactivity (PSR sort gate)” value was “low polyreactivity”.
The value for “QVQQQESGGGLVQAGGSLRLSCAASGYIFQAENMGWYRQAPGKERELVAAITIGASTYYADSVRGRFTISRDNAKNTVYLQMNSVKPEDTAVYYCAAKRFQYRTLYDYWGQGTQVTVSS” was “high polyreactivity”; that for “QVQQVESWGGLLQAGGSLRLSCAASGSIFTLYAMGWYREAPGKERELVADITWSGGSTYYADSVKGRFTISRDNAKNTVYLEMNSLKPEDTAVYYCAIDYLAGGPWEGHVEREYDYWGQGTQVTVSS” was “low polyreactivity”.
